Data: patent publication US20100284921A1

Target: human polyomavirus (JC virus) T-antigen (JC virus (human polyomavirus))
Assay: competition on T-antigen positive cells, 1 hour: 100-fold excess of unconjugated pAb416 against the ^125I 8 Ab/CLIO conjugate

Work on “pAb416, a monoclonal antibody against T-antigen (IgG, not coupled to CLIO)” yielded a percent decrease of binding and internalization of ^125I-Ab-CLIO greater than 80%.
